Results reported in patent publication US20200317768A1 (published 2020).
Blank lines part the entries; values can stand above or below the binder they belong to.

Experiments:
Assay in all cases: SPR (Biacore); KD of SG1 divided by KD of the variant for this FcgR;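 also: relative to parent M103205H795-SG1 carrying the SG1 human heavy chain constant region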
[1] = biological target: T1, cynomolgus monkey FcγRIIa3 extracellular domain with C-terminal His-tag (cynomolgus monkey)
T1 construct: Expressed in FreeStyle 293 cells and purified; also called cyno FcγRIIa3; cynoFcgRIIa3; not shown: C-terminal His-tag
T1 chain: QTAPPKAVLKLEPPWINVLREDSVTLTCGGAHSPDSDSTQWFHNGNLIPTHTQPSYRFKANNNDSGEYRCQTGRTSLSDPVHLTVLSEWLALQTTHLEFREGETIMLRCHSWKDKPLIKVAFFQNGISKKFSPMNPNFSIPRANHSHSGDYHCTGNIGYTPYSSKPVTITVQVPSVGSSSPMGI
Protocol: (§1) The kinetic analysis of interactions between these antibodies and FcγR was carried out using BIACORE® T200 or BIACORE® 4000 (GE Healthcare). HBS-EP+ (GE Healthcare) was used as the running buffer, and the measurement temperature was set to 25° C. A chip produced by immobilizing Protein A. Protein A/G or mouse anti-human IgG kappa light chain (BD Biosciences) onto a Series S Sensor Chip CM4 or CM5 (GE Healthcare) by the amine-coupling method was used. […] After the measurement, the antibody captured on the chip was washed off by allowing reaction with 10 mM glycine-HCl, pH1.5 and 25 mM NaOH so that the chip was regenerated and used repeatedly. The sensorgrams obtained as measurement results were analyzed by the 1:1 Langmuir binding model using the BIACORE® Evaluation Software to calculate the binding rate constant ka (L/mol/s) and dissociation rate constant kd (l/s), and the dissociation constant KD (mol/L) was calculated from these values. […] Regarding such interactions, KD values were calculated using the following 1:1 binding model described in BIACORE® T100 Software Handbook BR1006-48 Edition AE.
(§2) The resultant variants were expressed using M103202L889-SK1 as light chain and their affinity to human and cynoFcγRs were evaluated (Table 20).

[2] = biological target: T2, cynomolgus monkey FcγRIIb extracellular domain with C-terminal His-tag (cynomolgus monkey)
T2 construct: Expressed in FreeStyle 293 cells and purified; also called cyno FcγRIIb; cynoFcγRIIb; not shown: C-terminal His-tag
T2 chain: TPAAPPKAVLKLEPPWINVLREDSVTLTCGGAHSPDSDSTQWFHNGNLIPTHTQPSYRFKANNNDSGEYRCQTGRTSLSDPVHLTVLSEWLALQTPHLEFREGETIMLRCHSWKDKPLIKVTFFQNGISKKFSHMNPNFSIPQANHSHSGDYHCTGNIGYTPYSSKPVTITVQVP
Protocol: as §1, §2

[3] = biological target: T3, human FcγRIIIaV extracellular domain with C-terminal His-tag (human, UniProt P08637 17-208)
T3 construct: Expressed in FreeStyle 293 cells and purified; also called FcgRIIIaV; not shown: C-terminal His-tag
T3 sequence (P08637 17-208 F176V): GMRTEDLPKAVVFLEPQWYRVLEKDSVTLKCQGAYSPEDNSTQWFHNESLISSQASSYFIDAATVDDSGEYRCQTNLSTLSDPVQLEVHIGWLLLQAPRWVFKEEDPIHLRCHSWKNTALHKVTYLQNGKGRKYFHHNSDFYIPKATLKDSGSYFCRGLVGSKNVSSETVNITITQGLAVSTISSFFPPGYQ
Protocol: as §1, §2

B1: MS_M103205H795-SG1/M103202L889-SK1 (antibody, human IgG1, kappa)
heavy: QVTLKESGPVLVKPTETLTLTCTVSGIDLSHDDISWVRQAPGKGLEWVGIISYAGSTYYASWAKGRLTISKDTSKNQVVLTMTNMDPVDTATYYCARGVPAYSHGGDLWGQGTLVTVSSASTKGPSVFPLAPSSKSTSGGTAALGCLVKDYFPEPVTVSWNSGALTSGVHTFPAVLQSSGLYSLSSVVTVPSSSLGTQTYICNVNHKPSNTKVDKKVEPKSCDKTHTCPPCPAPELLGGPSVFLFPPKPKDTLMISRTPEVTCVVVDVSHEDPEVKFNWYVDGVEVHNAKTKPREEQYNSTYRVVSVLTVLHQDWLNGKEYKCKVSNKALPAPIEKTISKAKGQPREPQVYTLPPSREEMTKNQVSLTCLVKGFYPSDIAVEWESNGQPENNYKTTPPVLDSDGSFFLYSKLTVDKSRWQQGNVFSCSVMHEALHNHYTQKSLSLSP
light: DIVMTQSPATLSLSPGERATLSCTSSQSVYHANWLSWFQQKPGQPPKLLIYWASTLAYGVPSRFSGSGSGTDFTLTISSLQPEDAATYYCAGGYGGGRYAFGQGTKVEIKRTVAAPSVFIFPPSDEQLKSGTASVVCLLNNFYPREAKVQWKVDNALQSGNSQESVTEQDSKDSTYSLSSTLTLSKADYEKHKVYACEVTHQGLSSPVTKSFNRGEC
notes: Anti-latent myostatin IgG; also called MS1032LO06-SG1
KD fold (SG1 = 1) [1]: 1 fold
KD fold (SG1 = 1) [2]: 1 fold
KD fold (SG1 = 1) [3]: 1 fold

B2: M103205H795-MY052 / M103202L889-SK1 (antibody, human IgG1, kappa)
heavy: QVTLKESGPVLVKPTETLTLTCTVSGIDLSHDDISWVRQAPGKGLEWVGIISYAGSTYYASWAKGRLTISKDTSKNQVVLTMTNMDPVDTATYYCARGVPAYSHGGDLWGQGTLVTVSSASTKGPSVFPLAPSSKSTSGGTAALGCLVKDYFPEPVTVSWNSGALTSGVHTFPAVLQSSGLYSLSSVVTVPSSSLGTQTYICNVNHKPSNTKVDKKVEPKSCDKTHTCPPCPAPELLNGPSVFLFPPKPKDTLMISRTPEVTCVVVDVSEEDPEVKFNWYVDGVEVHNAKTKPREEQYNSTYRVVSVLTVLHQDWLNGKEYKCKVSNKALPAPIEKTISKAKGQPREPQVYTLPPSREEMTKNQVSLTCLVKGFYPSDIAVEWESNGQPENNYKTTPMVLDSDGSFFLYSKLTVDKSRWQQGNVFSCSVMHEALHNHYTQKSLSLSP
light: DIVMTQSPATLSLSPGERATLSCTSSQSVYHANWLSWFQQKPGQPPKLLIYWASTLAYGVPSRFSGSGSGTDFTLTISSLQPEDAATYYCAGGYGGGRYAFGQGTKVEIKRTVAAPSVFIFPPSDEQLKSGTASVVCLLNNFYPREAKVQWKVDNALQSGNSQESVTEQDSKDSTYSLSSTLTLSKADYEKHKVYACEVTHQGLSSPVTKSFNRGEC
notes: Fc variant of M103205H795-SG1, expressed with M103202L889-SK1 as light chain; parent of the position 396 variants
KD fold (SG1 = 1) [1]: 4.4 fold
KD fold (SG1 = 1) [2]: 3.9 fold
KD fold (SG1 = 1) [3]: 0.54 fold

Continued, values first:

KD fold (SG1 = 1) [1]: 1.7 fold
KD fold (SG1 = 1) [2]: 1.8 fold
KD fold (SG1 = 1) [3]: 0.13 fold
B3: M103205H795-MY169 / M103202L889-SK1 (antibody, human IgG1, kappa)
heavy: QVTLKESGPVLVKPTETLTLTCTVSGIDLSHDDISWVRQAPGKGLEWVGIISYAGSTYYASWAKGRLTISKDTSKNQVVLTMTNMDPVDTATYYCARGVPAYSHGGDLWGQGTLVTVSSASTKGPSVFPLAPSSKSTSGGTAALGCLVKDYFPEPVTVSWNSGALTSGVHTFPAVLQSSGLYSLSSVVTVPSSSLGTQTYICNVNHKPSNTKVDKKVEPKSCDKTHTCPPCPAPELLNGPSVFLFPPKPKDTLMISRTPEVTCVVVDVSEEDPEVKFNWYVDGVEVHNAKTKPREEQYNSTYRVVSVLTVLHQDWLNGKEYKCKVSNKALPAPIEKTISKAKGQPREPQVYTLPPSREEMTKNQVSLTCLVKGFYPSDIAVEWESNGQPENNYKTTPDVLDSDGSFFLYSKLTVDKSRWQQGNVFSCSVMHEALHNHYTQKSLSLSP
light: DIVMTQSPATLSLSPGERATLSCTSSQSVYHANWLSWFQQKPGQPPKLLIYWASTLAYGVPSRFSGSGSGTDFTLTISSLQPEDAATYYCAGGYGGGRYAFGQGTKVEIKRTVAAPSVFIFPPSDEQLKSGTASVVCLLNNFYPREAKVQWKVDNALQSGNSQESVTEQDSKDSTYSLSSTLTLSKADYEKHKVYACEVTHQGLSSPVTKSFNRGEC
notes: Position 396 variant derived from MY052, expressed with M103202L889-SK1 as light chain

KD fold (SG1 = 1) [1]: 1.7 fold
KD fold (SG1 = 1) [2]: 1.5 fold
KD fold (SG1 = 1) [3]: 0.1 fold
B4: M103205H795-MY168 / M103202L889-SK1 (antibody, human IgG1, kappa)
heavy: QVTLKESGPVLVKPTETLTLTCTVSGIDLSHDDISWVRQAPGKGLEWVGIISYAGSTYYASWAKGRLTISKDTSKNQVVLTMTNMDPVDTATYYCARGVPAYSHGGDLWGQGTLVTVSSASTKGPSVFPLAPSSKSTSGGTAALGCLVKDYFPEPVTVSWNSGALTSGVHTFPAVLQSSGLYSLSSVVTVPSSSLGTQTYICNVNHKPSNTKVDKKVEPKSCDKTHTCPPCPAPELLNGPSVFLFPPKPKDTLMISRTPEVTCVVVDVSEEDPEVKFNWYVDGVEVHNAKTKPREEQYNSTYRVVSVLTVLHQDWLNGKEYKCKVSNKALPAPIEKTISKAKGQPREPQVYTLPPSREEMTKNQVSLTCLVKGFYPSDIAVEWESNGQPENNYKTTPAVLDSDGSFFLYSKLTVDKSRWQQGNVFSCSVMHEALHNHYTQKSLSLSP
light: DIVMTQSPATLSLSPGERATLSCTSSQSVYHANWLSWFQQKPGQPPKLLIYWASTLAYGVPSRFSGSGSGTDFTLTISSLQPEDAATYYCAGGYGGGRYAFGQGTKVEIKRTVAAPSVFIFPPSDEQLKSGTASVVCLLNNFYPREAKVQWKVDNALQSGNSQESVTEQDSKDSTYSLSSTLTLSKADYEKHKVYACEVTHQGLSSPVTKSFNRGEC
notes: as for B3
